{"source": "patent US8586031B2", "about": "“Method of reusing rinse water from disinfecting packages with peracid and catalase” (Ecolab USA Inc., priority 2008, dated 2013)", "molecules": {"B1": {"name": "Bovine Catalase: crystaline bovine liver catalase, Sigma Aldrich (protein, UniProt P00432 2-527, looked up)", "Catalase": "ADNRDPASDQMKHWKEQRAAQKPDVLTTGGGNPVGDKLNSLTVGPRGPLLVQDVVFTDEMAHFDRERIPERVVHAKGAGAFGYFEVTHDITRYSKAKVFEHIGKRTPIAVRFSTVAGESGSADTVRDPRGFAVKFYTEDGNWDLVGNNTPIFFIRDALLFPSFIHSQKRNPQTHLKDPDMVWDFWSLRPESLHQVSFLFSDRGIPDGHRHMNGYGSHTFKLVNANGEAVYCKFHYKTDQGIKNLSVEDAARLAHEDPDYGLRDLFNAIATGNYPSWTLYIQVMTFSEAEIFPFNPFDLTKVWPHGDYPLIPVGKLVLNRNPVNYFAEVEQLAFDPSNMPPGIEPSPDKMLQGRLFAYPDTHRHRLGPNYLQIPVNCPYRARVANYQRDGPMCMMDNQGGAPNYYPNSFSAPEHQPSALEHRTHFSGDVQRFNSANDDNVTQVRTFYLKVLNEEQRKRLCENIAGHLKDAQLFIQKKAVKNFSDVHPEYGSRIQALLDKYNEEKPKNAVHTYVQHGSHLSAREKANL"}}, "assay": "Decomposition of hydrogen peroxide by catalase in about 20,000 ppm acetic acid and 500-800 ppm hydrogen peroxide at 60° C., thiosulfate titration", "assay_type": "biochemical", "protocol": "Example 1 compared the ability to various catalase enzymes at 100 ppm concentration to decompose hydrogen peroxide. For this example, an aliquot of a stock solution of catalase was added to 1000 ml of a solution containing about 20,000 ppm acetic acid and 500-800 ppm of hydrogen peroxide at 60° C. The catalase addition was done at a rate that produced an enzyme concentration of 100 ppm in the 1000 ml solution The concentration of the hydrogen peroxide was measured at time zero and at 5, 10, and 15 minutes. The concentration of hydrogen peroxide was measured via titration of a 10 ml aliquot of solution including 1-2 ml of […], 1-2 ml concentrated sulfuric acid, 4-5 drops of an oxygen catalyst (saturated solution of Ammonium Molybdate) and a few drops of a starch solution. The titrant was 0.1 N Sodium thio sulfate. The solution was titrated to a colorless endpoint and the peroxide concentration was calculated via the following calculation:\nExample 2 compared the ability to various catalase enzymes at 20 ppm concentration to decompose hydrogen peroxide. For this example, 20 ppm of catalase enzyme was diluted in 20,000 ppm acetic acid and 500-800 ppm of hydrogen peroxide at 60° C. The concentration of the hydrogen peroxide was measured at time zero and at 5, 10, and 15 minutes in the same manner as outlined in example 1."}
{"molecule": "B1", "values": [{"measurement": "decrease of the concentration of hydrogen peroxide", "setting": "20 ppm catalase", "value": "did not measurably decrease"}, {"measurement": "Hydrogen Peroxide Concentration", "setting": "20 ppm catalase, 0 minutes", "value": 600, "unit": "ppm"}, {"measurement": "Hydrogen Peroxide Concentration", "setting": "20 ppm catalase, 5 minutes", "value": 600, "unit": "ppm"}, {"measurement": "Hydrogen Peroxide Concentration", "setting": "20 ppm catalase, 10 minutes", "value": 600, "unit": "ppm"}, {"measurement": "Hydrogen Peroxide Concentration", "setting": "20 ppm catalase, 15 minutes", "value": 600, "unit": "ppm"}, {"measurement": "decreased the concentration of hydrogen peroxide by", "setting": "100 ppm catalase, 0 to 15 minutes", "value": 28.9, "unit": "ppm"}, {"measurement": "Hydrogen Peroxide Concentration", "setting": "100 ppm catalase, 0 minutes", "value": 581.4, "unit": "ppm"}, {"measurement": "Hydrogen Peroxide Concentration", "setting": "100 ppm catalase, 5 minutes", "value": 564.4, "unit": "ppm"}, {"measurement": "Hydrogen Peroxide Concentration", "setting": "100 ppm catalase, 10 minutes", "value": 561, "unit": "ppm"}, {"measurement": "Hydrogen Peroxide Concentration", "setting": "100 ppm catalase, 15 minutes", "value": 552.5, "unit": "ppm"}]}
